In patent US20070111281A1:

Experiments:
[1] = target: shFcγRIIIa-H6 (soluble human FcγRIIIa with hexahistidine tag, Example 3) (human) (UniProt P08637); assay: SPR (Biacore1000), receptor coupled to CM5 chip, IgG in flow, steady state
[2] = target: shFcγRIIIa-Q162-H6 (soluble human FcγRIIIa lacking glycosylation at position 162, hexahistidine tag, Example 3) (human) (UniProt P08637); assay: as above

| Substance | Kd [1] | Kd [2] |
| --- | --- | --- |
| IgG mutant 9 H268D, non-GE glycoform (antibody) | 124 nM | 87.3 nM |
| IgG mutant 22 F243E, non-GE glycoform (antibody) | 887 nM | 428 nM |
| IgG mutant 30 H268E, non-GE glycoform (antibody) | 189 nM | 152 nM |
| IgG mutant 88 T260H, non-GE glycoform (antibody) | 276 nM | 290 nM |

Further substances by falling Kd [1], results first:

| Kd [1] | Kd [2] | Substance |
| --- | --- | --- |
| 688 nM | 372 nM | IgG mutant 20 S239W, non-GE glycoform (antibody) |
| 542 nM | 382 nM | IgG mutant 85 F243H, non-GE glycoform (antibody) |
| 246 nM | 214 nM | control antibody (humanized IgG1), non-GE glycoform |
| 155 nM | 170 nM | IgG mutant 98 S239E, non-GE glycoform (antibody) |
| 85.7 nM | 122 nM | IgG mutant 43 S239D, non-GE glycoform (antibody) |
